Laboratory results reported in PMC11211491 (2024).
Square brackets hold non-standard residues; d marks the D form. Dap = NC[C@H](N)C(=O)O

Molecular target: His-tagged SRPK1ΔNS3 (UniProt Q96SB4 1-655)
Assay: MST

Sequence of His-tagged SRPK1ΔNS3 (Q96SB4 other isoform, or with tags, fused parts or gaps mutant): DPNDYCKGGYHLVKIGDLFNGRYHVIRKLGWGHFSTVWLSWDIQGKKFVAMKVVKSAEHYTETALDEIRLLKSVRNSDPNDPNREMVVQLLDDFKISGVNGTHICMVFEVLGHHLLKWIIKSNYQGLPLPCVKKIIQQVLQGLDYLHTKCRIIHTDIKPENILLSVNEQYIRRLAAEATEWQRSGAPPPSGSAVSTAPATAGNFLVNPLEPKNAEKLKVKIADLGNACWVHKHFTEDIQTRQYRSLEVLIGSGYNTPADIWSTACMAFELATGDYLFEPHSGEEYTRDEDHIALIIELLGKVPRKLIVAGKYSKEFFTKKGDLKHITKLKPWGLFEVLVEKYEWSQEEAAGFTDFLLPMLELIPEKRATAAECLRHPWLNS

Question: For Ac-RERARTRR[Dap](aryl‑SO2F)RARTRERARTR-NH2 [covalent docking blocker of SRPK (C-DBS)], which Kd is on record?
Answer: 1.47 µM
